Measurements: patent CN106632674A
pEC50: −log10 of the molar value.

How the values were obtained:
[1] = molecular target: PD-1ECD-TEV-mFc融合蛋白 (human); assay: indirect ELISA, coated PD-1 Fc fusion (mFc form assumed for 5C4), run together with 6F5H1L1 and 6F5H2L2
[2] = molecular target: PD-1ECD-TEV-hFc融合蛋白 (human); assay: competition ELISA, antibody titrated from 1.5 ug/ml against PDL-1 Fc fusion (2 ug/ml; PDL-1-mFc assumed) on coated PD-1 Fc fusion (PD-1-hFc assumed)
[3] = molecular target: PD-1ECD-TEV-mFc融合蛋白 (human); assay: indirect ELISA, coated PD-1 Fc fusion (mFc form assumed for 5C4), run together with 6F5 and 6F5(Re)

Sequence of PD-1ECD-TEV-mFc融合蛋白 (human) (main, as listed by the source, form in doubt): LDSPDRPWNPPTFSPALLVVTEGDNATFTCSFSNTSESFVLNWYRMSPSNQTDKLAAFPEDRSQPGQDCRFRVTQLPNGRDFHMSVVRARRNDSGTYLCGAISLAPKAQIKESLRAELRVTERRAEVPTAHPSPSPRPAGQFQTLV
Sequence of PD-1ECD-TEV-hFc融合蛋白 (human) (main, as listed by the source, form in doubt): as above

阳性对照抗体5C4 (antibody)
pEC50 [1]: 9.63 | pEC50 [2]: 8.84 | pEC50 [3]: 9.70
